According to patent publication US20230192902A1 (published 2023):
Residue numbers refer to the chain shown, from its start. Read-outs that look alike come from different tables or passages of the source.

Tests used:
[1] = target: T1, human ABCG2 (UniProt Q9UNQ0 1-655); assay: flow cytometry cell binding; 293T-G2OX cells
T1 chain: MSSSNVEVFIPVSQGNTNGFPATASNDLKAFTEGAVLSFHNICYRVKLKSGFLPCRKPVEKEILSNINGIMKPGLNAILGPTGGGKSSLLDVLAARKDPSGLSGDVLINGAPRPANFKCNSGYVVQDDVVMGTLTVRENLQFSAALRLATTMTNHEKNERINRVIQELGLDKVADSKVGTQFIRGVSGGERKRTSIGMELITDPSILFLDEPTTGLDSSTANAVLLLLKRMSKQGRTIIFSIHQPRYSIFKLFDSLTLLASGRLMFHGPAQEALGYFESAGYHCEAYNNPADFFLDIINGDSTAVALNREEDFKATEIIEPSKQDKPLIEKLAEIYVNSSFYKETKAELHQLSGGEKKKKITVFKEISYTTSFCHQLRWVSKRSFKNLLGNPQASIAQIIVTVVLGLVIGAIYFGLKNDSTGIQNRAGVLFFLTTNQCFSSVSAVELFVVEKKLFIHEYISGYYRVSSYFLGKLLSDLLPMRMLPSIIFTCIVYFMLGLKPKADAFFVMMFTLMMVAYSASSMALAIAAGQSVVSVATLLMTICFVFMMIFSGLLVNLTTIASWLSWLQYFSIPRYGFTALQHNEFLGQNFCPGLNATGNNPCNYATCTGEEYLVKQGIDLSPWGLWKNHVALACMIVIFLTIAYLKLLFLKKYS

[2] = target: T1, human ABCG2; assay: flow cytometry cell binding; 293T-G2OX cells
[3] = target: human PD-L1 (human, UniProt Q9NZQ7 19-290); assay: flow cytometry cell binding; 293T-KT9OX cells
[4] = target: 293T-G2KT9OX; assay: flow cytometry cell binding; cells expressing both ABCG2 and PD-L1

Chain of human PD-L1 (Q9NZQ7 19-290): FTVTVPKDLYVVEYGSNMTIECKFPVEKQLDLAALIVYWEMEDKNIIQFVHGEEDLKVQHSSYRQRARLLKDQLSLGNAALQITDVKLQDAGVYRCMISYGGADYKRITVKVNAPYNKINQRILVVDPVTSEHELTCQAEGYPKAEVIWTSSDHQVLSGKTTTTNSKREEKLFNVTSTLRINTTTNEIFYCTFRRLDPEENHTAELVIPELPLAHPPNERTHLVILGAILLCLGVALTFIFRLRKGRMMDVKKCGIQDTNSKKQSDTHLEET

B1: anti-ABCG2 antibody 5D3 (antibody, V domains shown)
VH: QVQLQESGPGLVKPSQSLSLTCTVTGFSITSDYAWNWIRQFPGKKLEWMGYINFDGGTTYNPSLRGRISITRDTSKNQFFLQLRSVTPEDTATYYCATFYGAKGTLDYWGQGTSVTVSS
VL: DIVLTQSPSSFSVSLGDRVTISCKASGYILNRLAWYQQKPGNAPRLLISGATSLETGFPSRFSGTGSGKDYTLSISSLQTEDVGTYYCQQYWSTPWTFGGGTKLEIR
[1]
  EC50: 1.5 nM

B2: 5D3hVH-v1DD KT9KK 5D3hVL-v1 (bispecific antibody, V domains shown)
VH 1: EVQLQESGPGLVKPSETLSLTCTVSGFSITSDYAWNWIRQPPGKGLEWMGYINFDGGTTYNPSLRGRITISRDTSKNQFSLKLSSVTAADTAVYYCATFYGAKGTLDYWGQGTLVTVSS
VH 2: not shown
VL: DIQLTQSPSSLSASVGDRVTITCKASGYILNRLAWYQQKPGKAPKLLISGATSLETGFPSRFSGSGSGKDYTLTISSLQPEDFATYYCQQYWSTPWTFGGGTKLEIK
[2]
  EC50: 7.1 nM
[3]
  EC50: 4.18 nM

B3: 5D3hVHv1 5D3hVKv1 (antibody, V domains shown)
VH: B2 VH 1
VL: B2 VL
[1]
  EC50: 2.2 nM

B4: 5D3hVHv2 5D3hVKv1 (antibody, V domains shown)
VH: B2 VH 1 with M49I, I68V
VL: B2 VL
[1]
  EC50: 2.2 nM

B5: 5D3hVHv1DD KT9KK 5D3hVKv1 (bispecific antibody, V domains shown)
VH 1: B2 VH 1
VH 2: not shown
VL: B2 VL
[4]
  EC50: 10.8 nM
